Patent US20260055195A1 (COUNCIL OF THE QUEENSLAND INSTITUTE OF MEDICAL RESEARCH, published 2026)

T1: EphA3 expressed on tumour cell lines (LK63, U251, D270) (UniProt P29320 21-983)
T1 construct: whole, on cells; also called EphA3 on LK63 cells; EphA3 on U251 cells
T1 sequence (looked up): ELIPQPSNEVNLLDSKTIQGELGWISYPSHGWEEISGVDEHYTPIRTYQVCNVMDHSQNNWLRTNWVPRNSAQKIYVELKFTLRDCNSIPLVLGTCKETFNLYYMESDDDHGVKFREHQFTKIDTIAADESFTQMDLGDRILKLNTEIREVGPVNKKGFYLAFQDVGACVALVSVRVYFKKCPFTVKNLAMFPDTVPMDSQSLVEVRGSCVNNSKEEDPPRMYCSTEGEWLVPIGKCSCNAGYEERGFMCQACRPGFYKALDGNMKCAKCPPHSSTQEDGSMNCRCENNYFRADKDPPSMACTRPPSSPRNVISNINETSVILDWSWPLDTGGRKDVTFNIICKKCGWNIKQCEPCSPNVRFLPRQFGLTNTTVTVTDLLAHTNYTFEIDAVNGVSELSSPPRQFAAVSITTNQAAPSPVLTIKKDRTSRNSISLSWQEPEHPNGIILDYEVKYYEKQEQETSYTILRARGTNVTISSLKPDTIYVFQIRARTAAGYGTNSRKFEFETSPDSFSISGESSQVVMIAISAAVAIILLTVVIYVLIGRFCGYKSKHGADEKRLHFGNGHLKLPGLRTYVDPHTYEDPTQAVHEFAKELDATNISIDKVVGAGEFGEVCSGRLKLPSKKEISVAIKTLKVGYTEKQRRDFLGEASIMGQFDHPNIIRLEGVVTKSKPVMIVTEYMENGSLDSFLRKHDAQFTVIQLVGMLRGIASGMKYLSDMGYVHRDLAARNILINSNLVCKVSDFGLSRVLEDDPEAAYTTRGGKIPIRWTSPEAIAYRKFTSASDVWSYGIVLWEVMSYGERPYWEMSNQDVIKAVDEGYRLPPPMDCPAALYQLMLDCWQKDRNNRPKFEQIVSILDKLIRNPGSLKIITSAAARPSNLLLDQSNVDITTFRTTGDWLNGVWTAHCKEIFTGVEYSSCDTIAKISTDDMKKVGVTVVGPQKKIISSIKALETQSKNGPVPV

B1: Clone 3C3-1 anti-EphA3 monoclonal antibody (antibody, V domains shown)
VH: QVQLQQSGAELARPGASVKMSCKSSGYTFTIYTIHWVKQRPGQGLEWIGYINPSSDYTNYNQKFKDKATLTADKSSTTAYMQLSSLTSEDSAVYYCVREGAYGNYDFAMDYWGQGTSVTVSS
VL: DVLMTQTPLSLPVSLGDQASISCRSSQNIVHNNGNTYLEWYLQKPGQSPKLLIYKVSNRFSGVPDRFSGSGSGTDFTLKISRVEAEDLGVYYCFQTSHVPYTFGGGTKLEIK
notes: Mouse hybridoma monoclonal, screened as subclone supernatant
B2: Clone 2D4-1 anti-EphA3 monoclonal antibody (antibody, V domains shown)
VH: QVHLKESGPGLVAPSQSLSITCTVSGFSLTGYGVNWIRQPPGKNLEWLGMIWGDGSTDYNSVLKSRLSISKDNAKSQVFLEMNSLQTDDTANYYCARDRGISYYYAMDYWGQGTSVTVSS
VL: DIVLTQSPASLAVSLGQRATISCRASKSVSASGYSYLHWYQQKPGQPPKLLIFLAYNLGSGVPARFSGSGAGTDFTLNIHPVEEEDAATYYCQHSREFPLTFGAGTKLELK
notes: as for B1

Assays:
[1] = target: T1, EphA3 expressed on tumour cell lines …; assay: flow cytometry on glioma cell lines D270 and U251
[2] = target: T1, EphA3 expressed on tumour cell lines …; assay: flow cytometry, subclone supernatant on LK63 cells

Row | Binder | binding result [1] | binding result [2]
1 | B1 | binds | 
2 | B2 |  | binds
